The assay concerns the target LC3-trap Wx8 (covalently labelled with an N-hydroxysuccinimide (RED-NHS) dye in the MST). Nature of the assay: MST.

Data on two molecules can be found in paper PMC9090809 (2022).

B1: recombinant LC3C (natural protein)
chain: MPPPQKIPSVRPFKQRKSLAIRQEEVAGIRAKFPNKIPVVVERYPRETFLPPLDKTKFLVPQELTMTQFLSIIRSRMVLRATEAFYLLVNNKSLVSMSATMAEIYRDYKDEDGFVYMTYASQETFG
As a reminder, the Kd is the constant that tells how readily two partners part at equilibrium. High values mean a looser complex, low ones a tighter complex. Regarding B1, binding was characterised by a dissociation constant (Kd) of 3.4 nM.

B2: recombinant GABARAP (natural protein)
chain: MKFVYKEEHPFEKRRSEGEKIRKKYPDRVPVIVEKAPKARIGDLDKKKYLVPSDLTVGQFYFLIRKRIHLRAEDALFFFVNNVIPPTSATMGQLYQEHHEEDFFLYIAYSDESVYGL
B2 registered a Kd of 24.8 nM. Against the preceding molecule, the Kd is about 7.3-fold higher.
